Read-outs that look alike come from different tables or passages of the source.

Data on one substance can be found in patent publication US7374891B2, “Methods to identify compounds that modulate rage” (TransTech Pharma, Inc., priority 2000, dated 2008).

This test addresses T1, S-100b (Homo sapiens, UniProt P04271).
T1 sequence (P04271 2-92 limits assumed): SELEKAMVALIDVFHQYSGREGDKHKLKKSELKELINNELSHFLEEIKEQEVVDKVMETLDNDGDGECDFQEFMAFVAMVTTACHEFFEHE
Nature of the test: Saturation binding of sRAGE to immobilized S-100b (ELISA, Scatchard analysis). Here is the method: Generally, the protocol for detection of RAGE modulators is as follows. RAGE ligand (e.g. S-100b, β-amyloid, CML) is diluted to 5 μg/ml in buffer A (fixing buffer) (100 mM Na2CO3/NaHCO3, pH 9.8) and 100 μl added to microtiter plate wells and allowed to incubate overnight at 4° C. to allow the ligand to become fixed to the surface of the wells. Wells are then washed 3 times with 400 μl/well buffer C (wash buffer) (20 mM Imidazole, 150 mM NaCl, pH 7.2), with a 5 second soak in buffer C between each wash. Buffer B (blocking buffer) (50 mM Imidazole pH 7.2, 5% BSA, 5 mM CaCl2, 5 mM MgCl2) is then added to the wells and allowed to incubate for 2 hours at 37° C. to block nonspecific protein binding sites. The blocking buffer is then aspirated from the wells, and the plate washed 3 times (400 μl/well) with buffer C, with a 5 second soak in buffer C between each wash. The compound of interest, 25 μl dissolved in 2% DMSO FAC (Final Assay Concentration ) and sRAGE (75 μl) (2.2×10^−4 mg/ml FAC) are then added to each well, and incubated 1 hour at 37° C. Meanwhile, polyclonal antibody or monoclonal antibody for sRAGE (e.g. 3.0×10^−3 mg/ml and 1.9×10^−4 mg/ml FAC, respectively), biotinylated goat F (ab′)2 anti-mouse IgG (e.g. 8.0×10^−4mg/ml FAC) (Biosource International, Camarillo, Calif. (TAGO)), and alkaline phosphatase labeled streptavidin (3.0×10^−3 mg/ml FAC) (ZYMED, San Francisco, Calif.) are added to 5 ml of buffer D (complex buffer) (50 mM Imidazole, pH 7.2; 0.2% BSA, 5 mM CaCl2, 5 mM MgCl2) in a 15 ml conical tube and allowed to incubate 30 minutes at room temperature.
The solution containing sRAGE and the compound of interest is then aspirated from each well, and after 3 washes with wash buffer, with a 5 second soak between each wash, the anti-sRAGE:IgG:streptavidin-alkaline phosphatase complex is added to each well (100 μl complex per well). After 1 hour at room temperature, the solution in each well is aspirated, and the wells washed 3 times, with 5 second soaks between each wash.
The alkaline phosphatase substrate, para-nitrophenyl phosphate (pNPP) (1 mg/ml in 1 M diethanolamine, pH 9.8), is added and the color allowed to develop for 1 hr in the dark. After the addition of 10 μl stop solution per well (0.5 N NaOH; 50% methanol), the OD405 is measured.
In the experiment shown in FIG. 10, wells were coated by incubation with 500 ng/well S-100b overnight, and after washing, sRAGE diluted in buffer D added to the final concentrations shown. […]
The utility of the assay for detecting compounds which antagonize both low and high affinity RAGE binding domains is shown in FIGS. 8-11. […] The amount of sRAGE bound to the immobilized ligand was detected using anti-sRAGE polyclonal or monoclonal antibody (3.0×10^−3 mg/ml and 1.9×10^−4 mg/ml FAC, respectively) and the development system as described in Example 1. Plots were linearized by means of Scatchard analysis and values for Kd and Bmax determined. Statistical analysis of experimental precision was determined by utilizing GraghPad Prisam version 3 software (GraphPad Software, Inc. San Diego, Calif.).
Both low and high affinity binding of sRAGE to S-100b are detected using the assay method of the invention. […] After washing, sRAGE comprising a final concentration ranging from about 0.3 to 10 nM was added to each well, and after 1 hour at 37° C., bound sRAGE was measured by the addition of polyclonal antibody complex. […]

Consider “sRAGE: soluble, extracellular portion of RAGE, as defined by the amino acid sequence SEQ ID NO: 2”, for which the Kd is, setting by setting: (S-100b 50 ng/well, sRAGE about 0.3 to 10 nM, FIG. 8, read-out: Kd, high affinity binding component) roughly 6 nM; (S-100b 100 ng/well, sRAGE about 0.3 to 10 nM, FIG. 9, read-out: Kd, high affinity binding component) roughly 2 nM; (S-100b 500 ng/well, four separate determinations, FIG. 10, read-out: Kd value) 60 nM; (S-100b 500 and 100 ng/well, sRAGE 24 to 480 nM and 5 to 80 nM, FIGS. 10 and 11, read-out: Kd, low affinity binding site) roughly 60 nM; (sRAGE 0.3 to 10 nM, FIGS. 8 and 9, read-out: Kd, high affinity binding site) 2 to 6 nM.
